Experimental data reported in patent US20060234940A1.

Biological target: recombinant human DP IV, wild type (human) (UniProt P27487)
Assay: photometric assay, competition with the standard substrate GP-4NA

recombinant human DP IV, wild type (human), sequence (P27487 other isoform, or with tags, fused parts or gaps): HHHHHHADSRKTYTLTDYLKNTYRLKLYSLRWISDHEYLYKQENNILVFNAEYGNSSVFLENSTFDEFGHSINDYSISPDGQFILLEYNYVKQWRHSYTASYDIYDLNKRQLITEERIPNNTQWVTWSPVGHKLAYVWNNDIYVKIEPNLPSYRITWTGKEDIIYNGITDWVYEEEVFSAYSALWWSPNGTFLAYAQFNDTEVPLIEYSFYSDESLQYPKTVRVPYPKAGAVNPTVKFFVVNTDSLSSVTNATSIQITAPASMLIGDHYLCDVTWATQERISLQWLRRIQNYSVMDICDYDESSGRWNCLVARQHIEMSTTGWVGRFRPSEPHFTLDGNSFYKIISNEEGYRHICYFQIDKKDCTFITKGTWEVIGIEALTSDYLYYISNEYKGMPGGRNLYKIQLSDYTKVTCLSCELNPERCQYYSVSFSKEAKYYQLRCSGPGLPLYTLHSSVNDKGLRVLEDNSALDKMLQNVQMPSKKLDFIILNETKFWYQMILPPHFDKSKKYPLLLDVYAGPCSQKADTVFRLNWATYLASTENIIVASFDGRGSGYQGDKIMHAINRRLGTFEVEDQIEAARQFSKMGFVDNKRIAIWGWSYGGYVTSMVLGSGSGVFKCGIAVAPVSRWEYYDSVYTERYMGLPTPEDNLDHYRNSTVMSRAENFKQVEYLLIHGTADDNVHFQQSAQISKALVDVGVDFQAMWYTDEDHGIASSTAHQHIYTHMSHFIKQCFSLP

- Ki: 113 µM
Substance: PACAP-27 (from UniProt P18509 132-158) (peptide)
